Measurements reported in article PMC4307304, “The Oxidative Fermentation of Ethanol in Gluconacetobacter diazotrophicus Is a Two-Step Pathway Catalyzed by a Single Enzyme: Alcohol-Aldehyde Dehydrogenase (ADHa)” (International Journal of Molecular Sciences, 2015).

Tests used:
[1] = substrate: CC=O; assay: oxygen consumption (Clark electrode), oxidase activity of purified ADHa coupled to ADH-deficient Ga. diazotrophicus membranes; format: biochemical, Gluconacetobacter diazotrophicus; conditions: quinone analogue Q1 or Q2 100 uM, pH 6.0 phosphate, 30 °C, Triton X-100, text b13 calls the acetaldehyde constants of both assays the same, although the table prints 3.7 × 10^−4 for the dehydrogenase
Excerpt: oxygen consumption (Clark electrode), oxidase activity of purified ADHa coupled to ADH-deficient Ga. diazotrophicus membranes on ADHa

purified protein = substrate: CCO; assay: purified protein; conditions: quinone analogue Q1 or Q2 100 uM, pH 6.0 phosphate, 30 °C, Triton X-100

B1: ADHa (Gluconacetobacter diazotrophicus PA1 5) (protein)
chain: ESEFGATGEAIIHADDHPGDWLTYGRTYSEQRYSPLDQINRSNVGNLKLAWYYDLDTNRGQEGTPLIVDGVMYATTNWSKMKALDAATGKLLWAYDPRVPGNIADKGCCDTVNRGAAYWNGKVYFGTFDGRLIALDAKTGKLVWSVNTIPADAALGHQRSYTVDGAPRIAKGRVIIGNGGSEFGARGFVSAFDAETGKLDWRFYTVPNAQNKPDNAPSDAVLMSKAYPTWSPTGAWTTQGGGGTVWDSIVYDPVTDLVYLGVGNGSPWNYKFRSDGKGDNLFLGSIVALKPETGEYVWHFQETPMDQWDYTSVQQIMTLDLPINGQTRHVIVHAPKNGFFYIIDAKTGEFLSGKNYVYVNWASGLDPKTGRPIYNPDALYTLNGKEWYGIPGDLGGHNFAAMAFSPRTGLVYIPAQQVPFLYTSQVGGFKPHPDSWNLGLDMNKVGVTDSPEAKQAFIKDLKGWIVAWDPVKQQEAFRVDHKGPWNGGIVATGGDLLFQGLANGEFHAYDATNGADLFHFAAQSGIIAPPVTYMANGKQYVAVEVGWGGIYPFFLGGLARTSGWTVNHSRVIAFSLDGAAKLPPQNDKGFLPVKPPAQFDGKRTDNGYFEFQTFCAACHGDNAEAGGVLPDLRWSGAIRHQDAFYNVVGRGALTAYGMDRFDASMKPEQIEDIRQFLIKRSNDTYQREVDARKNVDGIPAQ
notes: native, purified from membranes with Triton X-100; heterodimer ~72 kDa (S-I) and ~44 kDa (S-II); with Alcohol dehydrogenase (quinone), cytochrome c subunit
Km [1]: 1100 µM
kcat/Km [1]: 1e+08 M⁻¹ s⁻¹
Km (purified protein): 76 µM
kcat/Km (purified protein): 1.8e+09 M⁻¹ s⁻¹
